Laboratory results: article doi:10.1101/2020.08.17.253781 (2020)

Target: GST-LOV2GIVe (L) (Avena sativa | , UniProt O49003)

B1: His-Gαi3 (natural protein)
chain: MGCTLSAEDKAAVERSKMIDRNLREDGEKAAKEVKLLLLGAGESGKSTIVKQMKIIHEDGYSEDECKQYKVVVYSNTIQSIIAIIRAMGRLKIDFGEAARADDARQLFVLAGSAEEGVMTSELAGVIKRLWRDGGVQACFSRSREYQLNDSASYYLNDLDRISQTNYIPTQQDVLRTRVKTTGIVETHFTFKELYFKMFDVGGQRSERKKWIHCFEGVTAIIFCVALSDYDLVLAEDEEMNRMHESMKLFDSICNNKWFTDTSIILFLNKKDLFEEKIKRSPLTICYPEYTGSNTYEEAAAYIQCQFEDLNRRKDTKEVYTHFTCATDTKNVQFVFDAVTDVIIKNNLKECGLY
  Kd: 270 nM
